The values below come from publication PMC9938168, “Structural basis for clearing of ribosome collisions by the RQT complex” (Nature Communications, 2023).

Details in all cases: both partners purified
The target of assay [1] is T1, Ski2-like helicase 1 (Slh1), subunit of the RQT complex, wild type (yeast, UniProt P53327 1-1967).
T1 construct: Slh1 (Rqt2), ATP-dependent Ski2-like RNA helicase of yeast RQT, 1967 amino acids; NTC residues 217-1122 and CTC residues 1123-1967 modelled, N-terminal domain 1-217 not visible; Co-purified with Cue3 and Rqt4 as the trimeric RQT complex; Eluted by TEV cleavage of the FTP tag; also called Rqt2; Slh1-FTP; source: yeast strain overexpressing RQT components (Slh1-FTP, Cue3, Rqt4), purified …
T1 sequence (P53327 whole entry, the tested form may be a part, one chain of several): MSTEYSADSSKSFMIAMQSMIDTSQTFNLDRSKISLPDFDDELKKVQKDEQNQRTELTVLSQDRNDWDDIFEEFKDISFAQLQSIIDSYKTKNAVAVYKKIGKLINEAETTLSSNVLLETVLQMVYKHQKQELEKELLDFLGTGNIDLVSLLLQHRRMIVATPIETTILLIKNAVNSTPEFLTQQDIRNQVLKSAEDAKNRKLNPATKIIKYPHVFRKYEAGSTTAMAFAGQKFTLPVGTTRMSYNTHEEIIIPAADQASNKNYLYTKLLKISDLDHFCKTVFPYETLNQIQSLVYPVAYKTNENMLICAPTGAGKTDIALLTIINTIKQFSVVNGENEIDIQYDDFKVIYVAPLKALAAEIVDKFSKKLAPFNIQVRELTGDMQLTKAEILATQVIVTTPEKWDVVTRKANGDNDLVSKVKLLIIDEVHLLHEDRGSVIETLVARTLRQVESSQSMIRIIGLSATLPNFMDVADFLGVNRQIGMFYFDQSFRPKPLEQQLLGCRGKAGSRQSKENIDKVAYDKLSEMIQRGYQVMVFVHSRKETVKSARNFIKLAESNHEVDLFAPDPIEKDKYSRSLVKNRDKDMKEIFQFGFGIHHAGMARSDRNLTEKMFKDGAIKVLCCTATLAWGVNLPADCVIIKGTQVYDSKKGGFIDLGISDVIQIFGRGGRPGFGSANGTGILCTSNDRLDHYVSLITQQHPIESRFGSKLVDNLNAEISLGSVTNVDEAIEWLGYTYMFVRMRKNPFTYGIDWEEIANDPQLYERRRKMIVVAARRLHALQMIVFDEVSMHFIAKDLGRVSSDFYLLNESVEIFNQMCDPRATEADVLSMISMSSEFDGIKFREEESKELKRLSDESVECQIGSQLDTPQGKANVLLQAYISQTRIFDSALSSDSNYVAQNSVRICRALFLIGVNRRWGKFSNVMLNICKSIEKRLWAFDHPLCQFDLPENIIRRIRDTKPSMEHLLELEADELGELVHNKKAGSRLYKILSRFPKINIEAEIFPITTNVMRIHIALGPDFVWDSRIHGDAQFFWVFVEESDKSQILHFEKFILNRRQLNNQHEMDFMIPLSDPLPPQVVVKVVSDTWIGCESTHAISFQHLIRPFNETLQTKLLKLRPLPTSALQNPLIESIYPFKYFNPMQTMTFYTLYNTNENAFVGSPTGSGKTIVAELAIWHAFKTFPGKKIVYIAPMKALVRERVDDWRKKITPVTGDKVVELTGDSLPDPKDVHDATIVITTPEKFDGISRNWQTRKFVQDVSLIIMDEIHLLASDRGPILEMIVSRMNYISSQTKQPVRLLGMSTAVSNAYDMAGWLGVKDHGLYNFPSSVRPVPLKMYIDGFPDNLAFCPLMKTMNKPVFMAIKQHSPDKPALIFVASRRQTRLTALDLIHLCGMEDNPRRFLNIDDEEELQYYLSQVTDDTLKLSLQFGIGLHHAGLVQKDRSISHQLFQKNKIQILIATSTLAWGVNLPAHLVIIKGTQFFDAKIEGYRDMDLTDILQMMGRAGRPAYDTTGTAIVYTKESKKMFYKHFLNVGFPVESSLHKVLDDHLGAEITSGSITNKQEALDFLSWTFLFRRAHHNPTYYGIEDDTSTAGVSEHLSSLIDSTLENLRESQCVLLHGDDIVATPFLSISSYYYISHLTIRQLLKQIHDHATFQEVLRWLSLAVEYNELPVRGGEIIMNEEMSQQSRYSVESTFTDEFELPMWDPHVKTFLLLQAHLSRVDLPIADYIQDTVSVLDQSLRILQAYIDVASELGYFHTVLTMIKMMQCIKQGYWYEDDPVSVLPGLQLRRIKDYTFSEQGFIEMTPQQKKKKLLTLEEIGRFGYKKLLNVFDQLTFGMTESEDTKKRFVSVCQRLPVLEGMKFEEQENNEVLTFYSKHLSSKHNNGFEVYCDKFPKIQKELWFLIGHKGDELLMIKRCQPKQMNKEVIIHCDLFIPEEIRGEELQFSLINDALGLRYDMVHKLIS
As to the kind of experiment: cryo-EM structure; pre-splitting samples: ubiquitinated CGN6-stalled disomes with wild-type RQT, or ubiquitinated CGN12-stalled disomes with K316R-RQT (RQT*), 1 mM ATP, 5 min at 25 °C; RQT seen on the lead ribosome of intact disomes.

Assay [2] addresses T2, Slh1-K316R, ATPase-deficient Walker A mutant of the N-terminal cassette, subunit of K316R-RQT (yeast, UniProt P53327 1-1967, K316R).
T2 construct: Slh1 (Rqt2) of yeast RQT, 1967 amino acids, with the ATPase-deficient mutation K316R; Probably made and tagged like the wild-type Slh1-FTP; also called K316R-Slh1; source: purified RQT complex (K316R-Slh1 mutant)
The assay is described as above.

For assay [3], the target named is T1, Ski2-like helicase 1 (Slh1), subunit of …. Description: cryo-EM structure; RQT-80S complex in conformation C1 (classical POST state); ubiquitinated CGN12-stalled disomes incubated 5 min at 25 °C with purified wild-type RQT and 1 mM ATP (post-splitting sample), vitrified; 80S refined to 2.4 Å, RQT locally refined to 3.5 Å.

T2 sequence (P53327 whole entry K316R): as the sequence (P53327 whole entry, the tested form may be a part, one chain of several) above, with K316R counted along it

B1: Rqt4, zinc-finger containing subunit of the RQT complex (natural protein, yeast)
chain: MTRKQAIDYAIKQVPQILPLEESDVKALCEQVLSTSSDDPEQIASKFLEFLGHEDLSFEFVMKFNELLNQNDKKEEKKTKNVHLEHTAPTSWKNESKQPTNNYINKKGDEKPKKLKDEKKSSTTRPTVQPSNQSTQSNPIKEKKEHRSKGKLQSLQEIDEAIKMLELRDSGSSKNCNCQGTRHPVFDIAPNCLHCGKVVCVIEGLNKGKCGHCHEQLISDNERTQMVEILNQEKNELNGSSSSLSNASNGANVPKKKTKTYKITSGMGKNLFAEQDKLFDFIERKRERERKRNEVLKLQEEKEESEAKERQASEHDHKAEENPELLAAQERLDRLLYFQDTSAERTKIIDNASDFDMNQEVGLWGSARERALALKKQQRNLRKWEKVEKERNGRREKYVVSMNIGSNGKVTMTEVPKDTENVIAGSDDDISDISDEEDISDLKHIHALKSEINTTKSLENLHLQSKAWDYERDKKQFDRPTYVKKNSDTAQQNRKTEEKAHDMQAYDLKSRVQVDQNADASVEQNILAVL
notes: Rqt4 of yeast RQT; two parts modelled (residues 171-219 and 323-381); PWI-like domain 1-74, helices flanking the zinc finger and the C-terminus not visible
On to B1, for which the binding result in assay [1] and in assay [2] was “binds” each time.

B2: ribosomal protein uS3 of the 40S subunit (natural protein, UniProt P05750 1-240, looked up)
chain: MVALISKKRKLVADGVFYAELNEFFTRELAEEGYSGVEVRVTPTKTEVIIRATRTQDVLGENGRRINELTLLVQKRFKYAPGTIVLYAERVQDRGLSAVAQAESMKFKLLNGLAIRRAAYGVVRYVMESGAKGCEVVVSGKLRAARAKAMKFADGFLIHSGQPVNDFIDTATRHVLMRQGVLGIKVKIMRDPAKSRTGPKALPDAVTIIEPKEEEPILAPSVKDYRPAEETEAQAEPVEA
notes: uS3 (Rps3), 40S ribosomal protein of yeast, part of the stalled ribosome; Stood in the assay as part of the whole 80S ribosome or disome, which had been ubiquitinated in vitro with Hel2; source: endogenous, in ribosomes of a yeast cell-free translation extract; ribosome-nascent chain complexes purified (His-tag Dynabeads, sucrose gradient)
Consider B2, for which, in assay [3], the binding result is “binds”.

B3: Cue3 (Rqt3), ubiquitin-binding CUE domain containing subunit of the RQT complex (natural protein, yeast, UniProt P53137 1-624, looked up)
chain: MLSRYNRVIEINGGNADISLPIVKFPPFKLRAQLIEKDPVVWLHLIETYVTYFEYLMQGANVELLDESTLDHLRLFLRTYLHEIADEEGKLLSLGINHDVSEQLYLLKGWIFSLIKKCGLLHLQIFGDSLWNLIKVYVRRNPDSIRGLIDGSLKPRINTQRVQLDKSYQVQQHLKQLIESGKFKRIDLRCVEDLLSAKSMQPNKFAENFFTANWIEILEALWAKGQGRGHKEARELIIISLFSVSADRLLKITKELGISNFETLALYPLLGTMLINEGVHKRLPDLKSKLLFLNLGGLSMDEGDHMSYPTSSGTEVNEEQLSALMELFPQFSKYQLSQTLLAYDNNIELVTNKIFEDPTIIEAFSREPAEEEVEPVSDGDNASFTEELSILDRGDSSKNKELDKKIISEGVPDELRNKTLTRALKLLYEADEDERDDTYDEADVNRSDPSKRIGLQEDEESYDTKDDSNEVRQDHNYHIVEAYLWNLLKEDPKLFERSKRGTKVRKTMKEMTSWSDEKIEGWCRMLERSPTRARLLEKKFMFKGNSKTGKTSYVHNRDSQNDGNVVKEQAKQKKSENIKKHEPQSTEQKKRQHAKNEKRKGARANHNRKKGHDKKLARAGNNAI
notes: Cue3 (Rqt3) of yeast RQT; only the N-terminal helical domain 1-297 modelled; CUE domain 298-360, four-helix bundle 468-541 and C-terminus 542-624 not visible
Take B3: the binding result in assay [1] and in assay [2] was “binds” throughout.

B4: ribosomal protein uS5 of the 40S subunit (natural protein, UniProt P25443 1-254, looked up)
chain: MSAPEAQQQKRGGFGGRNRGRPNRRGPRNTEEKGWVPVTKLGRLVKAGKITTIEEIFLHSLPVKEFQIIDTLLPGLQDEVMNIKPVQKQTRAGQRTRFKAVVVVGDSNGHVGLGIKTAKEVAGAIRAGIIIAKLSVIPIRRGYWGTNLGQPHSLATKTTGKCGSVTVRLIPAPRGSGIVASPAVKKLLQLAGVEDVYTQSNGKTRTLENTLKAAFVAIGNTYGFLTPNLWAEQPLPVSPLDIYSDEASAQKKRF
notes: uS5 (Rps2), 40S ribosomal protein of yeast; its usually flexible N-terminus is seen as extra density; Stood in the assay as part of the whole 80S ribosome; source: endogenous, in ribosomes of a yeast cell-free translation extract; ribosome-nascent chain complexes purified (His-tag Dynabeads, sucrose gradient)
As for B4, the binding result in assay [3] is “binds”.

B5: RACK1 (Asc1) of the 40S head (natural protein, UniProt P38011 1-319, looked up)
chain: MASNEVLVLRGTLEGHNGWVTSLATSAGQPNLLLSASRDKTLISWKLTGDDQKFGVPVRSFKGHSHIVQDCTLTADGAYALSASWDKTLRLWDVATGETYQRFVGHKSDVMSVDIDKKASMIISGSRDKTIKVWTIKGQCLATLLGHNDWVSQVRVVPNEKADDDSVTIISAGNDKMVKAWNLNQFQIEADFIGHNSNINTLTASPDGTLIASAGKDGEIMLWNLAAKKAMYTLSAQDEVFSLAFSPNRYWLAAATATGIKVFSLDPQYLVDDLRPEFAGYSKAAEPHAVSLAWSADGQTLFAGYTDNVIRVWQVMTAN
notes: RACK1 (Asc1), protein at the back side of the 40S head of the yeast ribosome; Stood in the assay as part of the whole 80S ribosome; source: endogenous, in ribosomes of a yeast cell-free translation extract; ribosome-nascent chain complexes purified (His-tag Dynabeads, sucrose gradient)
In the case of B5, the binding result in assay [3] is given as “binds”.
